Reference: publication PMC9234330, “Identification of Two Novel Fluorinases From Amycolatopsis sp. CA-128772 and Methanosaeta sp. PtaU1.Bin055 and a Mutant With Improved Catalytic Efficiency With Native Substrate” (Frontiers in Bioengineering and Biotechnology, 2022)

Substrate: C[S+](CC[C@H](N)C(=O)O)C[C@H]1O[C@@H](n2cnc3c(N)ncnc32)[C@H](O)[C@@H]1O
Experiment: purified protein
Assay type: biochemical, Amycolatopsis sp. CA-128772
Settings: KF 100 mM (methods text says 200 mM), Tris-HCl 50 mM pH 7.8, 50 °C, 10 min

B1: Fam (Amycolatopsis sp. CA-128772) (protein)
chain: MAKPSRPIIAFMSDLGITDDSVAQCKGLMLSVCPDVTIVDVCHTMKPWDVEEGARYIVDLPRLFPEGTVFATTTYPATGTTTRSVALRIKQAAKGGARGQWAGSGAGFERAEGSYIYIAPNNGLLTSVIEEHGYVEAYEVSSTEVIPEQPEPTFYSREMVALPSAHLAAGFPLEKVGRPLADDEIVRFERAKPAQNDDGELVGVVTAIDHPFGNVWTNIHREDLEKLGAGYGTRLRITLDEVLPFDLPLSPTFADAGPIGTPVAYLSSRGYLALARNAASLAYPYNLNAGISVRVVAA
**Q.** For B1, which Km is on record?
**A.** 77.17 ± 14.10 µM

**Q.** And the kcat?
**A.** 0.00285 s⁻¹

**Q.** What about the kcat/Km of the same protein?
**A.** 37 M⁻¹ s⁻¹
